Measured values taken from patent US20230355660A1.
Square brackets hold non-standard residues; d marks the D form. Ends that are not written are not given here.

Target: mAB anti V5 (Thermo Scientific), mouse anti V5 antibody
Test: ELISA: 1 µg/ml mouse anti V5 antibody with increasing amounts of SADC, complexes captured on streptavidin plate via biotinylated SADC peptide, bound IgG detected with anti mouse IgG-HRP

Row | Binder | EC50
1 | IPNPLLGLDGGSGDYKDDDDKGK[BiotinAca]GC (peptide, part only; not given: transferrin scaffold, part only, also: peptide conjugated to transferrin scaffold, copy number not given here) [SADC with transferrin scaffold carrying tagged V5 peptide] | 0.007 µg/mL
2 | IPNPLLGLDGGSGDYKDDDDKGK[BiotinAca]GC (peptide, part only; not given: albumin scaffold, part only, also: peptide conjugated to albumin scaffold, copy number not given here) [SADC with albumin scaffold carrying tagged V5 peptide] | 0.0279 µg/mL
3 | IPNPLLGLDGGSGDYKDDDDKGK[BiotinAca]GC (peptide, part only; not given: haptoglobin scaffold, part only, also: peptide conjugated to haptoglobin scaffold, copy number not given here) [SADC with haptoglobin scaffold carrying tagged V5 peptide] | 0.0555 µg/mL
